Results published in patent publication US9284543B2, “Neutral active soluble truncated PH20 polypeptides and uses thereof” (Halozyme, Inc., priority 2008, dated 2016).
Values belong to the molecule of their own block, whether it stands above or below them.

Assays:
CHO-S cells [1] = assay: Western blot analysis of PH20 expression in media and cells after transient expression; assay type: cell-based, Chinese Hamster; details: media versus cells
How it was run: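 PH20 expression and solubility were judged by anti-PH20 Western blot of non-reduced media and cell fractions, with expression shown by a ~66 kDa band. Samples came from CHO-S cells transiently transfected (GeneJuice) with mutant PH20-HZ24 DNA and cultured 48-72 h. GPI-anchored mutants were cleaved with PI-PLC to release soluble protein.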

[2] = Triton X-114 partition assay; assay type: physicochemical; details: partition into aqueous phase of Triton X-114 at 37° C.
Description: Solubility of a hyaluronidase can be determined by any method known to one of the skill in the art. One method for determining solubility is by detergent partitioning. […] For example, the solubility of the PH20 polypeptides described herein is assessed as described in Example 4. Membrane-anchored hyaluronidases, such as lipid-anchored hyaluronidases, including GPI-anchored hyaluronidases, will partition into the detergent-rich phase, but will partition into the detergent-poor or aqueous phase following treatment with Phospholipase C. Phospholipase C is an enzyme that cleaves the […] found in GPI-anchored proteins. Treatment with PLC will cause release of GPI-linked proteins from the outer cell membrane.
The samples were heated to 37° C. for 3 minutes to induce phase separation and centrifuged for 3 min at 4000 g at room temperature. Aqueous and detergent phases were removed for SDS-PAGE analysis and Western blotting. Rabbit anti-PH20 IgG (0.5 μg/mL) was used as the primary antibody and HRP-conjugated goat anti-Rabbit IgG (0.1 ng/mL, Cat#DC03L, EMD) was used as the secondary antibody. Full length human PH20, which partitions strongly into the detergent phase, was used as a control.

CHO-S cells [3] = assay: PI-PLC treatment of expressing cells, Western blot of media and cells; assay type: cell-based, Chinese Hamster; details: cells incubated with PI-PLC for 2 hours
Description: In this example, following transient expression, as described in Example 2 above, the media and cells were harvested separately and analyzed for PH20 expression and solublility by Western blot analysis. Solubility of the C-terminus truncation mutants was determined by examining whether the expressed protein was present in the growth media or in the cells. […] Cells expressing these mutants were treated with phosphoinositol-phospholipase C (PI-PLC), which cleaves the GPI-anchor allowing the release of soluble protein into the media, and the presence of PH20 in the resulting media and cells was determined by Western blot analysis.
Following expression of rHuPH20 in CHO—S cells for 72 hours, as described in Example 2A above, the media and cells were harvested separately. The cells were washed with serum-free media followed by the addition of 2 mL serum-free media per well. PI-PLC (0.5 units/well) was added to each well and the cells were incubated in the PI-PLC for 2 hours. The resultant media and cells were analyzed by Western blot analysis as described above.
Two plates each of rHuPH20 expressing CHO—S cells, one for treatment with PI-PLC and one without treatment with PI-PLC, were prepared for each C-terminus mutant as described in Example 2B above. Following expression for 48 hours, for cells untreated with PI-PLC, the media and cells were harvested separately. The harvested media was spun down, concentrated to a volume of 10 mL, and buffer exchanged into PBS using an Amicon 30 kD MWCO concentrator. The cells were rinsed with cold PBS and scraped and resuspended in 1.2 mL PBS with protease inhibitor Set III (Cat No. 539134, Calbiochem). The resuspended cells were briefly sonicated to prepare whole-cell extract. For PI-PLC treatment of cells, following expression for 48 hours, the untreated media was harvested, as described above. The cells were rinsed once with fresh CD DG44 medium with Glutamax-1, and the media was replaced with 12 mL fresh detergent free CD DG44 medium supplemented with Glutamax-1 with 3.0 units PI-PLC per dish, and the cells were incubated for 2 hours at 37° C. with 5% CO2. After 2 hours, the PI-PLC media and cells were harvested separately, as described above. The resultant untreated media and cells, and PI-PLC treated media and cells, were analyzed by Western blot analysis as described above.

[4] = Microtiter hyaluronidase activity assay with biotinylated-hyaluronic acid; assay type: biochemical; details: for pH 5.5 Activity / pH 7.4 Activity: 72 hour post transfection supernatant; for Hyaluronidase activity (in words): pH 7.4 and pH 5.5

B1: SPAM1-VSIL: C-terminally truncated human PH20, precursor 499 aa (SEQ ID NO:7), mature 464 aa (SEQ ID NO:59) (protein, listed as Homo sapiens)
chain: LNFRAPPVIPNVPFLWAWNAPSEFCLGKFDEPLDMSLFSFIGSPRINATGQGVTIFYVDRLGYYPYIDSITGVTVNGGIPQKISLQDHLDKAKKDITFYMPVDNLGMAVIDWEEWRPTWARNWKPKDVYKNRSIELVQQQNVQLSLTEATEKAKQEFEKAGKDFLVETIKLGKLLRPNHLWGYYLFPDCYNHHYKKPGYNGSCFNVEIKRNDDLSWLWNESTALYPSIYLNTQQSPVAATLYVRNRVREAIRVSKIPDAKSPLPVFAYTRIVFTDQVLKFLSQDELVYTFGETVALGASGIVIWGTLSIMRSMKSCLLLDNYMETILNPYIINVTLAAKMCSQVLCQEQGVCIRKNWNSSDYLHLNPDNFAIQLEKGGKFTVRGKPTLEDLEQFSEKFYCSCYSTLSCKEKADVKDTDAVDVCIADGVCIDAFLKPPMETEEPQIFYNASPSTLSATMFIVSIL
modifications: mature HuPH20 36-499
- Expressed in Media (CHO-S cells [1]): YES
- Soluble [2]: YES
- Expressed in Media Following Addition of PI-PLC (CHO-S cells [3]): Initially in media
- pH 5.5 Activity ([4]; Table 6): 0.045 Units/ml
- pH 7.4 Activity ([4]; Table 6): 0.02025 Units/ml
- pH 5.5 Activity ([4]; Table 6A): 0.122 Units/ml
- pH 7.4 Activity ([4]; Table 6A): 0.486 Units/ml
- Hyaluronidase activity (in words) [4]: little detectable activity

B4: SPAM1-FIVS: C-terminally truncated human PH20, precursor 497 aa (SEQ ID NO:8), mature 462 aa (SEQ ID NO:60) (protein, listed as Homo sapiens)
chain 1: MGVLKFKHIFFRSFVKSSGVSQIVFTFLLIPCCLTLNFRAPPVIPNVPFLWAWNAPSEFCLGKFDEPLDMSLFSFIGSPRINATGQGVTIFYVDRLGYYPYIDSITGVTVNGGIPQKISLQDHLDKAKKDITFYMPVDNLGMAVIDWEEWRPTWARNWKPKDVYKNRSIELVQQQNVQLSLTEATEKAKQEFEKAGKDFLVETIKLGKLLRPNHLWGYYLFPDCYNHHYKKPGYNGSCFNVEIKRNDDLSWLWNESTALYPSIYLNTQQSPVAATLYVRNRVREAIRVSKIPDAKSPLPVFAYTRIVFTDQVLKFLSQDELVYTFGETVALGASGIVIWGTLSIMRSMKSCLLLDNYMETILNPYIINVTLAAKMCSQVLCQEQGVCIRKNWNSSDYLHLNPDNFAIQLEKGGKFTVRGKPTLEDLEQFSEKFYCSCYSTLSCKEKADVKDTDAVDVCIADGVCIDAFLKPPMETEEPQIFYNASPSTLSATMFIVS
chain 2: LNFRAPPVIPNVPFLWAWNAPSEFCLGKFDEPLDMSLFSFIGSPRINATGQGVTIFYVDRLGYYPYIDSITGVTVNGGIPQKISLQDHLDKAKKDITFYMPVDNLGMAVIDWEEWRPTWARNWKPKDVYKNRSIELVQQQNVQLSLTEATEKAKQEFEKAGKDFLVETIKLGKLLRPNHLWGYYLFPDCYNHHYKKPGYNGSCFNVEIKRNDDLSWLWNESTALYPSIYLNTQQSPVAATLYVRNRVREAIRVSKIPDAKSPLPVFAYTRIVFTDQVLKFLSQDELVYTFGETVALGASGIVIWGTLSIMRSMKSCLLLDNYMETILNPYIINVTLAAKMCSQVLCQEQGVCIRKNWNSSDYLHLNPDNFAIQLEKGGKFTVRGKPTLEDLEQFSEKFYCSCYSTLSCKEKADVKDTDAVDVCIADGVCIDAFLKPPMETEEPQIFYNASPSTLSATMFIVS
modifications: HuPH20 precursor 1-497; esHuPH20 36-497
- Expressed in Media (CHO-S cells [1]): YES
- Soluble [2]: YES
- Expressed in Media Following Addition of PI-PLC (CHO-S cells [3]): Initially in media
- pH 5.5 Activity ([4]; Table 6): 0.216 Units/ml
- pH 7.4 Activity ([4]; Table 6): 0.1755 Units/ml
- pH 5.5 Activity ([4]; Table 6A): 0.162 Units/ml
- pH 7.4 Activity ([4]; Table 6A): 0.365 Units/ml

The next lines start with results.

- pH 5.5 Activity ([4]; Table 6A): 0.162 Units/ml
- pH 7.4 Activity ([4]; Table 6A): 0.365 Units/ml
B2: SPAM1-SILF: C-terminally truncated human PH20, precursor 500 aa (SEQ ID NO:48), mature 465 aa (SEQ ID NO:100) (protein, listed as Homo sapiens)
chain 1: MGVLKFKHIFFRSFVKSSGVSQIVFTFLLIPCCLTLNFRAPPVIPNVPFLWAWNAPSEFCLGKFDEPLDMSLFSFIGSPRINATGQGVTIFYVDRLGYYPYIDSITGVTVNGGIPQKISLQDHLDKAKKDITFYMPVDNLGMAVIDWEEWRPTWARNWKPKDVYKNRSIELVQQQNVQLSLTEATEKAKQEFEKAGKDFLVETIKLGKLLRPNHLWGYYLFPDCYNHHYKKPGYNGSCFNVEIKRNDDLSWLWNESTALYPSIYLNTQQSPVAATLYVRNRVREAIRVSKIPDAKSPLPVFAYTRIVFTDQVLKFLSQDELVYTFGETVALGASGIVIWGTLSIMRSMKSCLLLDNYMETILNPYIINVTLAAKMCSQVLCQEQGVCIRKNWNSSDYLHLNPDNFAIQLEKGGKFTVRGKPTLEDLEQFSEKFYCSCYSTLSCKEKADVKDTDAVDVCIADGVCIDAFLKPPMETEEPQIFYNASPSTLSATMFIVSILF
chain 2: LNFRAPPVIPNVPFLWAWNAPSEFCLGKFDEPLDMSLFSFIGSPRINATGQGVTIFYVDRLGYYPYIDSITGVTVNGGIPQKISLQDHLDKAKKDITFYMPVDNLGMAVIDWEEWRPTWARNWKPKDVYKNRSIELVQQQNVQLSLTEATEKAKQEFEKAGKDFLVETIKLGKLLRPNHLWGYYLFPDCYNHHYKKPGYNGSCFNVEIKRNDDLSWLWNESTALYPSIYLNTQQSPVAATLYVRNRVREAIRVSKIPDAKSPLPVFAYTRIVFTDQVLKFLSQDELVYTFGETVALGASGIVIWGTLSIMRSMKSCLLLDNYMETILNPYIINVTLAAKMCSQVLCQEQGVCIRKNWNSSDYLHLNPDNFAIQLEKGGKFTVRGKPTLEDLEQFSEKFYCSCYSTLSCKEKADVKDTDAVDVCIADGVCIDAFLKPPMETEEPQIFYNASPSTLSATMFIVSILF
modifications: HuPH20 precursor 1-500; Mature HuPH20 36-500
- Expressed in Media (CHO-S cells [1]): WEAK/YES
- Soluble [2]: YES
- Expressed in Media Following Addition of PI-PLC (CHO-S cells [3]): Initially in media
- Hyaluronidase activity (in words) [4]: little detectable activity

- pH 5.5 Activity ([4]; Table 6): 0.612 Units/ml
- pH 7.4 Activity ([4]; Table 6): 0.45 Units/ml
- pH 5.5 Activity ([4]; Table 6A): 0.770 Units/ml
- pH 7.4 Activity ([4]; Table 6A): 0.689 Units/ml
B3: SPAM1-TMFI: C-terminally truncated human PH20, precursor 495 aa (SEQ ID NO:9), mature 460 aa (SEQ ID NO:61) (protein, listed as Homo sapiens)
chain 1: MGVLKFKHIFFRSFVKSSGVSQIVFTFLLIPCCLTLNFRAPPVIPNVPFLWAWNAPSEFCLGKFDEPLDMSLFSFIGSPRINATGQGVTIFYVDRLGYYPYIDSITGVTVNGGIPQKISLQDHLDKAKKDITFYMPVDNLGMAVIDWEEWRPTWARNWKPKDVYKNRSIELVQQQNVQLSLTEATEKAKQEFEKAGKDFLVETIKLGKLLRPNHLWGYYLFPDCYNHHYKKPGYNGSCFNVEIKRNDDLSWLWNESTALYPSIYLNTQQSPVAATLYVRNRVREAIRVSKIPDAKSPLPVFAYTRIVFTDQVLKFLSQDELVYTFGETVALGASGIVIWGTLSIMRSMKSCLLLDNYMETILNPYIINVTLAAKMCSQVLCQEQGVCIRKNWNSSDYLHLNPDNFAIQLEKGGKFTVRGKPTLEDLEQFSEKFYCSCYSTLSCKEKADVKDTDAVDVCIADGVCIDAFLKPPMETEEPQIFYNASPSTLSATMFI
chain 2: LNFRAPPVIPNVPFLWAWNAPSEFCLGKFDEPLDMSLFSFIGSPRINATGQGVTIFYVDRLGYYPYIDSITGVTVNGGIPQKISLQDHLDKAKKDITFYMPVDNLGMAVIDWEEWRPTWARNWKPKDVYKNRSIELVQQQNVQLSLTEATEKAKQEFEKAGKDFLVETIKLGKLLRPNHLWGYYLFPDCYNHHYKKPGYNGSCFNVEIKRNDDLSWLWNESTALYPSIYLNTQQSPVAATLYVRNRVREAIRVSKIPDAKSPLPVFAYTRIVFTDQVLKFLSQDELVYTFGETVALGASGIVIWGTLSIMRSMKSCLLLDNYMETILNPYIINVTLAAKMCSQVLCQEQGVCIRKNWNSSDYLHLNPDNFAIQLEKGGKFTVRGKPTLEDLEQFSEKFYCSCYSTLSCKEKADVKDTDAVDVCIADGVCIDAFLKPPMETEEPQIFYNASPSTLSATMFI
modifications: HuPH20 precursor 1-495; esHuPH20 36-495
- Expressed in Media (CHO-S cells [1]): YES
- Soluble [2]: YES
- Expressed in Media Following Addition of PI-PLC (CHO-S cells [3]): Initially in media
